Data taken from US7662583B2, “Bioreactor containing cells expressing glycosyltransferase nucleic acids isolatable from Arabidopsis” (The University of York, priority 2003, dated 2010).

B1: UGT72B3: Arabidopsis recombinant glycosyltransferase (protein, UniProt Q9LNI1 1-481, looked up)
UDP-glycosyltransferase 72B3: MADGNTPHVAIIPSPGIGHLIPLVELAKRLLDNHGFTVTFIIPGDSPPSKAQRSVLNSLPSSIASVFLPPADLSDVPSTARIETRISLTVTRSNPALRELFGSLSAEKRLPAVLVVDLFGTDAFDVAAEFHVSPYIFYASNANVLTFLLHLPKLDETVSCEFRELTEPVIIPGCVPITGKDFVDPCQDRKDESYKWLLHNVKRFKEAEGILVNSFVDLEPNTIKIVQEPAPDKPPVYLIGPLVNSGSHDADVNDEYKCLNWLDNQPFGSVLYVSFGSGGTLTFEQFIELALGLAESGKRFLWVIRSPSGIASSSYFNPQSRNDPFSFLPQGFLDRTKEKGLVVGSWAPQAQILTHTSIGGFLTHCGWNSSLESIVNGVPLIAWPLYAEQKMNALLLVDVGAALRARLGEDGVVGREEVARVVKGLIEGEEGNAVRKKMKELKEGSVRVLRDDGFSTKSLNEVSLKWKAHQRKIDQEQESFL
B2: UGT73B2: Arabidopsis recombinant glycosyltransferase (protein, UniProt Q94C57 1-483, looked up)
UDP-glucosyl transferase 73B2: MGSDHHHRKLHVMFFPFMAYGHMIPTLDMAKLFSSRGAKSTILTTSLNSKILQKPIDTFKNLNPGLEIDIQIFNFPCVELGLPEGCENVDFFTSNNNDDKNEMIVKFFFSTRFFKDQLEKLLGTTRPDCLIADMFFPWATEAAGKFNVPRLVFHGTGYFSLCAGYCIGVHKPQKRVASSSEPFVIPELPGNIVITEEQIIDGDGESDMGKFMTEVRESEVKSSGVVLNSFYELEHDYADFYKSCVQKRAWHIGPLSVYNRGFEEKAERGKKANIDEAECLKWLDSKKPNSVIYVSFGSVAFFKNEQLFEIAAGLEASGTSFIWVVRKTKDDREEWLPEGFEERVKGKGMIIRGWAPQVLILDHQATGGFVTHCGWNSLLEGVAAGLPMVTWPVGAEQFYNEKLVTQVLRTGVSVGASKHMKVMMGDFISREKVDKAVREVLAGEAAEERRRRAKKLAAMAKAAVEEGGSSFNDLNSFMEEFSS
B3: UGT78D1: Arabidopsis recombinant glycosyltransferase (protein, UniProt Q9S9P6 1-453, looked up)
Flavonol-3-O-rhamnosyltransfer …: MTKFSEPIRDSHVAVLAFFPVGAHAGPLLAVTRRLAAASPSTIFSFFNTARSNASLFSSDHPENIKVHDVSDGVPEGTMLGNPLEMVELFLEAAPRIFRSEIAAAEIEVGKKVTCMLTDAFFWFAADIAAELNATWVAFWAGGANSLCAHLYTDLIRETIGLKDVSMEETLGFIPGMENYRVKDIPEEVVFEDLDSVFPKALYQMSLALPRASAVFISSFEELEPTLNYNLRSKLKRFLNIAPLTLLSSTSEKEMRDPHGCFAWMGKRSAASVAYISFGTVMEPPPEELVAIAQGLESSKVPFVWSLKEKNMVHLPKGFLDRTREQGIVVPWAPQVELLKHEAMGVNVTHCGWNSVLESVSAGVPMIGRPILADNRLNGRAVEVVWKVGVMMDNGVFTKEGFEKCLNDVFVHDDGKTMKANAKKLKEKLQEDFSMKGSSLENFKILLDEIVKV
B4: UGT71B5: Arabidopsis recombinant glycosyltransferase (protein, UniProt O23382 1-478, looked up)
UDP-glycosyltransferase 71B5: MKIELVFIPLPGIGHLRPTVKLAKQLIGSENRLSITIIIIPSRFDAGDASACIASLTTLSQDDRLHYESISVAKQPPTSDPDPVPAQVYIEKQKTKVRDAVAARIVDPTRKLAGFVVDMFCSSMIDVANEFGVPCYMVYTSNATFLGTMLHVQQMYDQKKYDVSELENSVTELEFPSLTRPYPVKCLPHILTSKEWLPLSLAQARCFRKMKGILVNTVAELEPHALKMFNINGDDLPQVYPVGPVLHLENGNDDDEKQSEILRWLDEQPSKSVVFLCFGSLGGFTEEQTRETAVALDRSGQRFLWCLRHASPNIKTDRPRDYTNLEEVLPEGFLERTLDRGKVIGWAPQVAVLEKPAIGGFVTHCGWNSILESLWFGVPMVTWPLYAEQKVNAFEMVEELGLAVEIRKYLKGDLFAGEMETVTAEDIERAIRRVMEQDSDVRNNVKEMAEKCHFALMDGGSSKAALEKFIQDVIENMD
B5: UGT71C5: Arabidopsis recombinant glycosyltransferase (protein, UniProt Q9FE68 1-480, looked up)
UDP-glycosyltransferase 71C5: MKTAELIFVPLPETGHLLSTIEFGKRLLNLDRRISMITILSMNLPYAPHADASLASLTASEPGIRIISLPEIHDPPPIKLLDTSSETYILDFIHKNIPCLRKTIQDLVSSSSSSGGGSSHVAGLILDFFCVGLIDIGREVNLPSYIFMTSNFGFLGVLQYLPERQRLTPSEFDESSGEEELHIPAFVNRVPAKVLPPGVFDKLSYGSLVKIGERLHEAKGILVNSFTQVEPYAAEHFSQGRDYPHVYPVGPVLNLTGRTNPGLASAQYKEMMKWLDEQPDSSVLFLCFGSMGVFPAPQITEIAHALELIGCRFIWAIRTNMAGDGDPQEPLPEGFVDRTMGRGIVCSWAPQVDILAHKATGGFVSHCGWNSVQESLWYGVPIATWPMYAEQQLNAFEMVKELGLAVEIRLDYVADGDRVTLEIVSADEIATAVRSLMDSDNPVRKKVIEKSSVARKAVGDGGSSTVATCNFIKDILGDHF

Test: UGT enzyme reaction with quercetin (recombinant UGTs, HPLC)
Format: biochemical, Arabidopsis
Conditions: 0.5 mM quercetin, 5 mM UDP-glucose, 30° C.; for Specific activity (nkat/mg protein) 3-O-glc: quercetin glucosylated at 3-OH; for Specific activity (nkat/mg protein) 3′-O-glc: quercetin glucosylated at 3′-OH; for Specific activity (nkat/mg protein) 4′-O-glc: quercetin glucosylated at 4′-OH; for Specific activity (nkat/mg protein) 7-O-glc: quercetin glucosylated at 7-OH
Description: The assay mix (200 μl) contained 2 μg of recombinant protein, 100 mM Tris-HCl, pH 7.0, 5 mM UDP-glucose 1.4 mM 2-mercaptoethanol, and 0.5 mM of quercetin. The reaction was carried out at 30° C. for 1 h, and was quick-frozen and stored at −20° C. prior to the reverse-phase HPLC analysis
Reverse-phase HPLC (SpectraSYSTEM HPLC systems and UV6000LP Photodiode Array Detector, ThermoQuest) analysis was carried using a Columbus 5μ C18 column (250×4.60 mm, PHENOMENEX). Quercetin glucosides were separated from the aglycone by a linear gradient of 10-75% acetonitrile in H2O (all solution contained 0.1% trifluoroacetic acid) at 1 ml/mm over 20 mm and monitored at 370 nm. Cytokinin glucosides were separated from their aglycone by a liner gradient of 10-100% methanol in H2O (for N6-isopentenyladenine (iP), N6-benzyladenine and kinetin) or 10-60% methanol in H2O (for trans-zeatin and dihydrozeatin) at 1 ml/min over 20 mm. All solution contained 0.25% acetic acid and 0.04% triethylamine, trifluoroacetic acid. The separation was monitored at 206 nm and 252 nm. The identity of the products was confirmed by comparison with authentic gluco sides.
The activity of Arabidopsis recombinant UGTs towards quercetin was determined using the platform developed previously^15.

| Molecule | Specific activity (nkat/mg protein) 3-O-glc [nkat/mg protein] | Specific activity (nkat/mg protein) 3′-O-glc | Specific activity (nkat/mg protein) 4′-O-glc | Specific activity (nkat/mg protein) 7-O-glc |
| --- | --- | --- | --- | --- |
| B1 | 0.20 | — (Activity lower than 0.02 nkat/mg protein has been considered as trace activity and is not shown in the Table.) | — (Activity lower than 0.02 nkat/mg protein has been considered as trace activity and is not shown in the Table.) | — (Activity lower than 0.02 nkat/mg protein has been considered as trace activity and is not shown in the Table.) |
| B2 | 0.92 | — (Activity lower than 0.02 nkat/mg protein has been considered as trace activity and is not shown in the Table.) | — (Activity lower than 0.02 nkat/mg protein has been considered as trace activity and is not shown in the Table.) | — (Activity lower than 0.02 nkat/mg protein has been considered as trace activity and is not shown in the Table.) |
| B3 | 0.24 | — (Activity lower than 0.02 nkat/mg protein has been considered as trace activity and is not shown in the Table.) | — (Activity lower than 0.02 nkat/mg protein has been considered as trace activity and is not shown in the Table.) | — (Activity lower than 0.02 nkat/mg protein has been considered as trace activity and is not shown in the Table.) |
| B4 | 0.26 | — (Activity lower than 0.02 nkat/mg protein has been considered as trace activity and is not shown in the Table.) | — (Activity lower than 0.02 nkat/mg protein has been considered as trace activity and is not shown in the Table.) | — (Activity lower than 0.02 nkat/mg protein has been considered as trace activity and is not shown in the Table.) |
| B5 | 0.33 | — (Activity lower than 0.02 nkat/mg protein has been considered as trace activity and is not shown in the Table.) | — (Activity lower than 0.02 nkat/mg protein has been considered as trace activity and is not shown in the Table.) | — (Activity lower than 0.02 nkat/mg protein has been considered as trace activity and is not shown in the Table.) |
